Substrate in this series: Nc1ncnc2c1ncn2[C@@H]1O[C@H](COP(=O)(O)NCCc2c[nH]c3ccccc23)[C@@H](O)[C@H]1O
Kind of series: Steady-state kinetics assay. It counts as biochemical, human. The note with it: other: steady-state 25 °C, pH 7.2.

A word on the Km: it is the substrate concentration at which the rate is half of its maximum. The kcat is the number of substrate molecules converted per active site and unit of time at saturation. The kcat/Km is the turnover number divided by the Michaelis constant.

B1: hHINT1 Q62A (Homo sapiens; Q62A) (protein)
chain: MADEIAKAQVARPGGDTIFGKIIRKEIPAKIIFEDDRCLAFHDISPQAPTHFLVIPKKHISAISVAEDDDESLLGHLMIVGKKCAADLGLNKGYRMVVNEGSDGGQSVYHVHLHVLGGRQMHWPPG
Consider B1, for which, where the note is “hHINT1 Q62A”, the Km was 0.015 ± 0.003 µM, the kcat turned out to be 0.45 ± 0.02 s⁻¹ and the kcat/Km was 2.8e+07 ± 4e+06 M⁻¹ s⁻¹.

B2: hHINT1 Q62R (Homo sapiens; Q62R) (protein)
chain: MADEIAKAQVARPGGDTIFGKIIRKEIPAKIIFEDDRCLAFHDISPQAPTHFLVIPKKHISRISVAEDDDESLLGHLMIVGKKCAADLGLNKGYRMVVNEGSDGGQSVYHVHLHVLGGRQMHWPPG
With B2, for the setting “hHINT1 Q62R”, the Km amounted to 0.136 ± 0.03 µM, the catalytic constant (kcat) came to 1.4 ± 0.09 s⁻¹ and the kcat/Km was found to be 1.1e+07 ± 2.4e+06 M⁻¹ s⁻¹.

B3: hHINT2 WT (Homo sapiens) (protein)
chain: GNEVAKAQQATPGGAAPTIFSRILDKSLPADILYEDQQCLVFRDVAPQAPVHFLVIPKKPIPRISQAEEEDQQLLGHLLLVAKQTAKAEGLGDGYRLVINDGKLGAQSVYHLHIHVLGGRQLQWPPG
On to B3, for which, for the setting “hHINT2 WT”, the Km is 0.91 ± 0.098 µM, the kcat stood at 5.77 ± 0.34 s⁻¹ and the kcat/Km came to 6.3e+06 ± 1e+06 M⁻¹ s⁻¹.

B4: hHINT2 R99A (Homo sapiens; R99A) (protein)
chain: GNEVAKAQQATPGGAAPTIFSRILDKSLPADILYEDQQCLVFRDVAPQAPVHFLVIPKKPIPAISQAEEEDQQLLGHLLLVAKQTAKAEGLGDGYRLVINDGKLGAQSVYHLHIHVLGGRQLQWPPG
Turning to B4, for the setting “hHINT2 R99A”, the Km turned out to be 0.683 ± 0.042 µM, the catalytic constant (kcat) came out at 2.65 ± 0.19 s⁻¹ and the kcat/Km is 3.88e+06 ± 810000 M⁻¹ s⁻¹.

B5: hHINT2 R99Q (Homo sapiens; R99Q) (protein)
chain: GNEVAKAQQATPGGAAPTIFSRILDKSLPADILYEDQQCLVFRDVAPQAPVHFLVIPKKPIPQISQAEEEDQQLLGHLLLVAKQTAKAEGLGDGYRLVINDGKLGAQSVYHLHIHVLGGRQLQWPPG
Turning to B5, where the note is “hHINT2 R99Q”, the Km stood at 0.84 ± 0.155 µM, the kcat worked out at 6.01 ± 0.26 s⁻¹ and the kcat/Km was determined as 7.2e+06 ± 1.1e+06 M⁻¹ s⁻¹.

Source of the values: publication PMC9854251.
